From US20030027358A1

Molecular target: MHC Class I heavy chains (HLA-A, B and C molecules) on CB23, HSB2, MP-1, Jurkat, primary T cells, primary B cells and primary NK cells
Assay: flow cytometry competition; W6/32 at 0, 2, 5 or 10 µg in 100 µL, competitor 5 µg P3G2/Fc

- amount of W6/32 at which P3G2 binding was totally blocked: 5 µg
Substance: W6/32 (ATCC HB-95), an antibody against MHC Class I heavy chains
